Results reported in the supplement of paper PMC9170038.

Test system: MS2 coat protein
Experiment: apparent KD of MS2 coat protein; higher = weaker reporter binding
Settings: Eterna round: R107
Summary of the method: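 Apparent KD was obtained for each design as the median of normalised binding-curve fits over its clusters. RNA switches transcribed on-chip from Illumina sequencing clusters were titrated with SNAP-549-labelled MS2 coat protein (twofold steps, 0.7 or 1.5 nM to 3 µM) in 100 mM Tris-HCl pH 7.5, 80 mM KCl, 4 mM MgCl2, without or with constant ligand.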

[1] = input ligand: theophylline 20 uM
[2] = input ligand: theophylline 2 mM
[3] = input ligand: tryptophan 2.4 mM

Row | Sequence | apparent KD of MS2 coat protein (input ligand: arginine 13.2 mM) [nM] | apparent KD of MS2 coat protein (input ligand: none) [nM] | apparent KD of MS2 coat protein [1] [nM] | apparent KD of MS2 coat protein [2] [nM] | apparent KD of MS2 coat protein [3] [nM]
1 | UUUUACGGCGAUCUGGGUUUACCAGAUCGGCGAGGACCGGUACGGCCGCCACUCGUGUUUCUUUAACAUGAGGAUCACCCAUGUA [SSTA #1] | 32.4 | 38.4 | 77.3 | 50.9 | 16
2 | AUGUUUGUGUGAGAUACCAGUGAGGCCACAUGAGGAUCACCCAUGUCCCUCACUCCGGCCCACCCUUGGCAGCUCUUAUAGAAAA [Exclusion Theophylline B GF 26] | 8.81 |  | 15.4 |  | 9.79
3 | UCGCGAUAGAGAAGGAGCGUCAACACCACUUAACAUGAGGAUCACCCAUGUGUUACUUUAAGACAGGUAGGUCGCUCUAGCGCUU [JR_Nu_ExcArginiB_Sub027] | 12.7 | 12.4 | 16.5 | 14.2 | 11.5
4 | GCACCAGGUACGGAUACCAGCUGCCACGGUUACAUGAGGAUCACCCAUGUGAUAAGGUGUAGCCCUUGGCAGCUGUACCUGGUGC [SSThB NP+V+V2 #7 +-Same Structure] | 96.9 | 142 | 500 | 411 | 258
5 | AGCCGAAACCUUGAUACCAGAUCAUGCUGCACAUGAGGAUCACCCAUGUCGUUAAACAUGGUCCCUUGGCAGCAAGUUAGGAUCU [Usustiusso] | 114 |  | 161 |  | 103
6 | AGCGGAACGGAAGGGUCCCAAAAUUGUGAUACCAGCCUUGAAUCCGGCCCUUGGCAGCACAUGAGGAUCACCCAUGUACUGCGGU [Celate] | 11.1 | 11 | 24.6 | 123 | 14.4
7 | UCCGCGGAGACGGCCGCCACUGAGUGAGAAGUCGUGCUCUAACUACAUGAGGAUCACCCAUGUCCCAGGACCGGGUCGAAGUGUU [theeternabot_sameState_MS2_Trp_B_36] | 97.4 |  | 235 | 208 | 
8 | AGAUGUAGCGGAAGGAGCGACAUGAGGAUCACCCAUGUCUCCCGUUAUGGGAGUUCCUUAGGUCAGGUAGGUCGCCGUUACGUCA [Omei Arg B SS B v1] | 105 | 146 | 143 | 226 | 105
9 | CACGAAAGAUCGGCCGCCACUAAUCUAUGUGUUCUUUCACAUGAGGAUCACCCAUGUUCUUGCGUUAGGACCGGGAUUGAGCGUG [#02 Exclusion Tryptophan B] | 29.9 |  | 39.7 | 36.6 | 
10 | AGCGACAUGCGUGAUACCAGCUACAUGAGGAUCACCCAUGUAAGUAGGAAACUACUGUGUAGCCCUUGGCAGCACAGUGCAUGUC [Exclusion - Theophylline B (Freestyle 23)] | 10.3 |  | 14 |  | 10.8
11 | AGCCGGAUUACGGCCGCCACUGUAGACGUGACGAAAGUCGCGUCAACAUGAGGAUCACCCAUGUACAGGACCGGGUGGUCAGGCG [Omei Tryp B SS A v4] | 108 |  | 432 | 464 | 
12 | GCCGCGGCCGCGAUACACAUGGGUAUGUAACGAGGACCGGUACGGCCGCCACUCGAGAUAAUGUACAUGAGGAUCACCCAUGUAC [Exclusion Tryp A GF12] | 10.3 |  | 15.1 | 12.8 | 
13 | CCUUAAUAUGGAAGGAGCGCGCUAACAUGAGGAUCACCCAUGUAAAGGGUUUUAGGCUUAGCGCAGGUAGGUCGCCGUAAGAACC [#09 Exclusion - Arginine B] | 288 | 249 | 266 | 327 | 252
14 | CUGCCAUGCAGAGAUACCAGUGAGCUCAUAACAUGAGGAUCACCCAUGUACGCCGCAGAUCACCCUUGGCAGCUCUGCAUGGCAG [!#*@)] | 8.21 | 9.18 | 11.5 | 10.1 | 9.83
15 | AUUCUUUACUGAAGGAGCGUCAUUCUUACAUGAGGAUCACCCAUGUUUAUUCUUUAUUAUUGACAGGUAGGUCGCAGAUUUUUUA [JR_SSArginiB_Sub018] | 15.5 | 13.8 | 17.7 | 14.3 | 14.3
16 | GAGCUGAUGUAGAGUGGAUAUCCUUGAGAUACCAGUACAGAAAUGUACCCUUGGCAGCUCUUCUUUACAUGAGGAUCACCCAUGU [Ex Theophylline A 24] | 12.8 |  | 14.3 |  | 12.5
